For assay [1], the target named is T1, rHuman HGF R/c-MET/Fc Chimera, CF (R&D Systems Cat#358-MT/CF) (human, UniProt P08581 25-932).
T1 construct: Bought Fc chimera; also called HGF R/Fc; hepatocyte growth factor receptor; Fc part of the bought chimera not given
The experiment in a line: ECL (MSD Multi-Spot) binding, antigen spotted on plate; Fab 5 nM.

Assay [2] concerns the target T2, Recombinant Human DLL4 (R&D Systems Cat#1506-D4/CF) (human, UniProt Q9NR61 27-524).
T2 construct: Bought recombinant protein; also called delta-like protein 4
The description is as above.

In assay [3] the target is T3, rHuman EGF R/Fc Chimera, CF (R&D Systems Cat#344-ER) (human, UniProt P00533 25-645).
T3 construct: Bought Fc chimera; also called epidermal growth factor receptor; Fc part of the bought chimera not given
The assay is described as above.

Assay [4] addresses T4, rHuman ErbB2/Fc Chimera, CF (R&D Systems Cat#1129-ER) (human, UniProt P04626 23-652).
T4 construct: Bought Fc chimera; also called human epidermal growth factor 2 receptor; HER2/neu; Fc part of the bought chimera not given
Described as above.

The target of assay [5] is T5, rHuman IGF-1 sR, CF (R&D Systems Cat#391-GR) (human, UniProt P08069 31-932).
T5 construct: Bought soluble receptor; also called insulin-like growth factor-1 soluble receptor; IGF-R1
The assay is described as above.

For assay [6], the target named is T1, rHuman HGF R/c-MET/Fc Chimera, CF (R&D …). Kind of assay: ECL (MSD Multi-Spot) binding, antigen spotted on plate; Fab 500 nM.
For assay [7], the target named is T2, Recombinant Human DLL4 (R&D Systems …). The description is as above.
Assay [8] deals with T3, rHuman EGF R/Fc Chimera, CF (R&D …). Described as above.
For assay [9], the target named is T4, rHuman ErbB2/Fc Chimera, CF (R&D …). Described as above.
Assay [10] deals with T5, rHuman IGF-1 sR, CF (R&D Systems …). Described as above.
In assay [11] the target is T1, rHuman HGF R/c-MET/Fc Chimera, CF (R&D …). Kind of assay: ECL (MSD Multi-Spot) binding, antigen spotted on plate; Fab 50 nM.
Assay [12] deals with T2, Recombinant Human DLL4 (R&D Systems …). Described as above.
Assay [13] addresses T3, rHuman EGF R/Fc Chimera, CF (R&D …). The description is as above.
The target in assay [14] is T4, rHuman ErbB2/Fc Chimera, CF (R&D …). The description is as above.
Assay [15] concerns the target T5, rHuman IGF-1 sR, CF (R&D Systems …). Described as above.
The target of assay [16] is T6, rHuman CD44/Fc Chimera, CF (R&D Systems Cat#3660-CD) (human, UniProt P16070 21-220).
T6 construct: Bought Fc chimera; Fc part of the bought chimera not given
Kind of assay: ECL (MSD Multi-Spot) binding, antigen spotted on plate; Fab 1.25 nM.

In assay [17] the target is T7, rHuman Erythropoietin R/Fc Chimera, CF (R&D Systems Cat#963-ER) (human, UniProt P19235 25-250).
T7 construct: Bought Fc chimera; also called EPO R/Fc; erythropoietin receptor; Fc part of the bought chimera not given
T7 sequence: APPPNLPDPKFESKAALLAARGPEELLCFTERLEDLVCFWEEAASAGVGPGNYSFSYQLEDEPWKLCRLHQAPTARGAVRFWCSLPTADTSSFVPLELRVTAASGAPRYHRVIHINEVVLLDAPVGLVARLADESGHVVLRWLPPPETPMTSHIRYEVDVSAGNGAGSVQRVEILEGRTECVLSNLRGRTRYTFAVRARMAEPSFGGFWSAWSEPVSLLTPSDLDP
The description is as above.

The target in assay [18] is T2, Recombinant Human DLL4 (R&D Systems …). Described as above.
Assay [19] concerns the target T8, rHuman Notch-1/Fc Chimera, CF (R&D Systems Cat#3647-TK) (human, UniProt P46531 19-526).
T8 construct: Bought Fc chimera; Fc part of the bought chimera not given
The assay is described as above.

The target of assay [20] is T9, rHuman P-Cadherin/Fc Chimera, CF (R&D Systems Cat#861-PC) (human, UniProt P22223 108-654).
T9 construct: Bought Fc chimera; Fc part of the bought chimera not given
The assay is described as above.

The target in assay [21] is T5, rHuman IGF-1 sR, CF (R&D Systems …). The description is as above.
Assay [22] addresses T6, rHuman CD44/Fc Chimera, CF (R&D Systems …). The experiment in a line: ECL (MSD Multi-Spot) binding, antigen spotted on plate; Fab 500 nM.
The target of assay [23] is T7, rHuman Erythropoietin R/Fc Chimera, CF …. The assay is described as above.
The target of assay [24] is T2, Recombinant Human DLL4 (R&D Systems …). Described as above. The source holds these as a separate data set.
Assay [25] deals with T8, rHuman Notch-1/Fc Chimera, CF (R&D …). The description is as above.
For assay [26], the target named is T9, rHuman P-Cadherin/Fc Chimera, CF (R&D …). Described as above.
The target of assay [27] is T5, rHuman IGF-1 sR, CF (R&D Systems …). The assay is described as above. This is another data set of the same source.
In assay [28] the target is T6, rHuman CD44/Fc Chimera, CF (R&D Systems …). The experiment in a line: ECL (MSD Multi-Spot) binding, antigen spotted on plate; Fab 25 nM.
Assay [29] deals with T7, rHuman Erythropoietin R/Fc Chimera, CF …. The assay is described as above.
For assay [30], the target named is T2, Recombinant Human DLL4 (R&D Systems …). The description is as above.
In assay [31] the target is T8, rHuman Notch-1/Fc Chimera, CF (R&D …). The description is as above.
Assay [32] addresses T9, rHuman P-Cadherin/Fc Chimera, CF (R&D …). The assay is described as above.
For assay [33], the target named is T5, rHuman IGF-1 sR, CF (R&D Systems …). The assay is described as above.
Assay [34] has as its target T6, rHuman CD44/Fc Chimera, CF (R&D Systems …). The experiment in a line: ECL (MSD Multi-Spot) binding, antigen spotted on plate; Fab 0.0625 nM.
The target of assay [35] is T7, rHuman Erythropoietin R/Fc Chimera, CF …. Described as above.
Assay [36] has as its target T2, Recombinant Human DLL4 (R&D Systems …). The description is as above.
Assay [37] concerns the target T8, rHuman Notch-1/Fc Chimera, CF (R&D …). The description is as above.
In assay [38] the target is T9, rHuman P-Cadherin/Fc Chimera, CF (R&D …). Described as above.
The target in assay [39] is T5, rHuman IGF-1 sR, CF (R&D Systems …). The description is as above.
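Note: blank spot per well as comparator with Hit at signal to blank ratio of 4 or more.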

B1: Fab VH1-46_IGHD6-6*01_IGHJ1*01_S102A_S103P_S104F_H111F & L6_IGKJ1*01 (Fab, V domains shown)
VH: QVQLVQSGAEVKKPGASVKVSCKASGYTFTSYYMHWVRQAPGQGLEWMGIINPSGGSTSYAQKFQGRVTMTRDTSTSTVYMELSSLRSEDTAVYYCAREEYAPFSAEYFQFWGQGTLVTVSS
VL: not shown
notes: Fab made in E. coli; The heavy chain also carries the CH1 with Flag and His tags of Plasmid A, and the light chain the kappa constant region of Plasmid C
Take B1: the ECL signal in assay [1] is 1020; in assay [2] it was 150000; in assay [3] it was 1160; in [4], 1380; in assay [5] it was 917; in assay [6], 2040. The ECL signal in [7] was 29900; in assay [8], 2510; in assay [9] it was 2620; in [10] it was 1870; in assay [11], 1280; in [12], 94200. Besides, the ECL signal in [13] is 2040; in assay [14], 2110; in assay [15], 1230.

B2: Fab VH5-51_IGHD5-18*01>3_IGHJ4*01_G100K_G104T & V3-4_IGLJ1*01 (Fab, V domains shown)
VH: EVQLVQSGAEVKKPGESLKISCKGSGYSFTSYWIGWVRQMPGKGLEWMGIIYPGDSDTRYSPSFQGQVTISADKSISTAYLQWSSLKASDTAMYYCARRKYSYTYDYFDYWGQGTLVTVSS
VL: QTVVTQEPSFSVSPGGTVTLTCGLSSGSVSTSYYPSWYQQTPGQAPRTLIYSTNTRSSGVPDRFSGSILGNKAALTITGAQADDESDYYCVLYMGSGISYVFGTGTKVTVL
notes: Fab made in E. coli
As for B2, the ECL signal was 444 in assay [16]; 448 in assay [17]; 38800 in [18]; 312 in assay [19]; 374 in [20]; 674 in assay [21]. The ECL signal stood at 923 in assay [22]; 828 in [23]; 25900 in assay [24]; 703 in assay [25]; 815 in [26]; 1110 in [27]. For the same molecule, the ECL signal turned out to be 570 in assay [28]; 597 in [29]; 77900 in [30]; 440 in [31]; 269 in assay [32]; 780 in assay [33]. For the same molecule, the ECL signal amounted to 394 in assay [34]; 332 in assay [35]; 1010 in [36]; 439 in assay [37]; 331 in assay [38]; 537 in assay [39].

The values above are taken from patent publication US20120058906A1 (published 2012).
